# Results published in article PMC7159911 (Science Advances, 2020).
# B1: rBAT (SLC3A1), human, N-terminal 10x His tag (natural protein, UniProt Q07837-1 1-685, looked up)
# chain: MAEDKSKRDSIEMSMKGCQTNNGFVHNEDILEQTPDPGSSTDNLKHSTRGILGSQEPDFKGVQPYAGMPKEVLFQFSGQARYRIPREILFWLTVASVLVLIAATIAIIALSPKCLDWWQEGPMYQIYPRSFKDSNKDGNGDLKGIQDKLDYITALNIKTVWITSFYKSSLKDFRYGVEDFREVDPIFGTMEDFENLVAAIHDKGLKLIIDFIPNHTSDKHIWFQLSRTRTGKYTDYYIWHDCTHENGKTIPPNNWLSVYGNSSWHFDEVRNQCYFHQFMKEQPDLNFRNPDVQEEIKEILRFWLTKGVDGFSLDAVKFLLEAKHLRDEIQVNKTQIPDTVTQYSELYHDFTTTQVGMHDIVRSFRQTMDQYSTEPGRYRFMGTEAYAESIDRTVMYYGLPFIQEADFPFNNYLSMLDTVSGNSVYEVITSWMENMPEGKWPNWMIGGPDSSRLTSRLGNQYVNVMNMLLFTLPGTPITYYGEEIGMGNIVAANLNESYDINTLRSKSPMQWDNSSNAGFSEASNTWLPTNSDYHTVNVDVQKTQPRSALKLYQDLSLLHANELLLNRGWFCHLRNDSHYVVYTRELDGIDRIFIVVLNFGESTLLNLHNMISGLPAKMRIRLSTNSADKGSKVDTSGIFLDKGEGLIFEHNTKNLLHRQTAFRDRCFVSNRACYSSVLNILYTSC
# modifications: five glycosylation sites in the extracellular domain (residues 111 to 685)
# Target: the molecule itself
# Experiment: cryo-EM structure
protein,measurement,value
B1,stoichiometry N,2
